Experiment: yeast display, Sf9 membrane polyspecificity reagent, FACS + sequencing; frameworks hold sequencing errors
How it was run: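 Galactose-induced (36–48 hours) yeast carrying a synthetic nanobody display library were exposed to 10% biotinylated, detergent-solubilized Sf9 membrane reagent at 4 °C for 1 hour. FACS followed streptavidin microbead enrichment, using low and high (top ~1%) gates for expression (anti-HA) and reagent binding (streptavidin). Colony PCR, MiSeq 2 × 250 sequencing and CDR-length filtering followed. Labels for polyreactivity reflect the gate of origin.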

| Sequence | polyreactivity (PSR sort gate) |
| --- | --- |
| QVQLVESGGGLVQAGGSRRLSCAASGFFFRTYSMGWYRQAPGTERELVAAISSSSGSTYYADSVKGRFTISRDNAKNTVYLQMNSLKPEDTAVYYCAAYSLSQKPRGYNYWGQGTQVTVSS | high polyreactivity |
| QVQLVESGGGLVQAGGSRRLSCAASGGIFNYYTMGWYRQATGKERELVAAINSSGGNTHYADSVKGRFTISRDNAKNTVYLQMYSLKPEDTAVYYCNADARSVWFYRVDYWGQGTQVTVSS | low polyreactivity |
| QVQLVESGGGLVQAGGSRRLSCAASGNIFPQNGMGWYRQAPAKERELVAAITRGGSTYYADSVKGRFTISRDNAKNTVYVQMHSLKPEDTAVYDCAAVRPQYRRRTKANPYNYWGQGTQVTVSS | high polyreactivity |
| QVQLVESGGGLVQAGGSRRLSCAASGNTIYFYVMGWYRQAPGKERELVAAISSSGGSTYYADSVKGRFTISRDNAKNTVYLQMNSLKPEDTSVYYCAAEMYLSRLRYWYDYWGQGTQVTVSS | high polyreactivity |
| QVQLVESGGGLVQAGGSRRLSCAASGRTFDSYTMGWYRQAPGKERELVADITFTGGSTYYADSVKGRFTISRDNAKNTVYLQMNSLKPDDTAVYYCNADREYKWYFRYDYWGQGTQVTVSS | low polyreactivity |
| QVQLVESGGGLVQAGGSRRLSCAASGSIFATYAIGWYRQAPGKERELVAAISWSGGRTYYADSVKGRFTISRDNAKNTVYLEMNSLKPEDTAVYYCNAVTLLGTRGYGYWGQGTQVTVSS | high polyreactivity |
| QVQLVESGGGLVQAGGSRRLSCAASGSTFSDYAMGWYRQAPGKERELVAAISSSGGRTYYADSVKGRFTISRDNAKNTVYLQMNSLNPEDTAVYYCNARGYARGVSTGYDFWGQGTQVTVSS | high polyreactivity |
| QVQLVESGGGLVQAGGSRRLSCAASGSTFYGYAMGWYRHAPGKEREFVAAITTSGGSTYYADSVKGRFTISRDNAKNTVYLQMNSLKPEDTAVYYCAADGFYYDDGYWGQGTQVTVSS | low polyreactivity |
| QVQLVESGGGLVQAGGSRRLSCAASGYSLRIYAMGWYRQAPGTEMELVAAISRSGGRTFYADSVKGRFTISRDNAKNTVFLQMNSLKQEDTAVYYCAADPRCYDTGRMDYWGQGTQVTVSS | high polyreactivity |
| QVQLVESGGGLVQAGGSRRLSSAASGIILDHNAMGWYRQAPGKERELVAAISSGTRTNYADSVKGRFTISRDNAKNTVYLQMNSLKPEDTAVYYCAATIYRRYPSKSSITSYWGQGTQVTVSS | high polyreactivity |
| QVQLVESGGGLVQAGGSVRLSCAASGRIFGWYAMGCYRPAPGKERELVAAIPWSGDSTYYADSVKGRFTISRDNAKNTVYLQMNSLKPEDTAVYYCNKVRGYPRVAGYYSWGQGTQVTVSS | low polyreactivity |
| QVQLVESGGGLVQAGGSVRLSCAASGSTFLYNAMGWYRQAPGKEREVVAGIRRSGGSTYYADSVKGRFTISRANAKNTVYLQMNSLKPEDTAVYYCAVVPAMYRYRVVTYAYDYWGQGTQVNVSS | low polyreactivity |
| QVQLVESGGGLVQAGGSVRLSCGASGRSFQRYALGWYRQAPGTERELVAAIRWSGGATYGDSVKGRFTISRDNAKNTVYLQMNSLQPEDTAVYYCAAVDRRDPYYPKYNYWGQGTQVTVSS | high polyreactivity |
| QVQLVESGGGLVQAGGSVRLSCGASGSIFLGNSMGWYRQAPGTLRELVAAISSITGSTYYADSVKGRFSISRDIAKNTVYLQMNRLKQEETGVYYCARVPDTEGEYWGQGTQVTVSS | high polyreactivity |
| QVQLVESGGGLVQAGGTLRISCAASGRIYAGYVMGWYRQAPRKERELVAAISGSGAYTYYADSVKGRFTISRDYAKNTVYLQMNRLKPEDSAVYYCAADKPGIFSRFDYWGQGTQVSVSS | low polyreactivity |
| QVQLVESGGGLVQAGGTLRISCAASGSTFLFYAMGWYRQAPGKERELVAAISSSGTSTYYADSVKGRFTISRDNAKNTVYLQMNSLKPEDTACYYCARRGRSLRWKYDYWGQGTQVTVSS | low polyreactivity |
| QVQLVESGGGLVQAGGTLRLSCAASGFTFLDYAMGWYRQAPGKERELVATINWSDVSTYYADSVKGRFTISRDTAKNTVYLQINSLKPEDTAVYYSAVDVLTVGQSNDHWGQGTQVTVSS | high polyreactivity |
| QVQLVESGGGLVQAGGTLRLSCAASGFTFRYYAMGWYRQAPGKERELVAAISRGGTTNYADSVKGRFTISRDNAKNTVYLQMNSLKPEDTAVYYCAARQYYSRVTYDYWGQGTQVTVSS | high polyreactivity |
| QVQLVESGGGLVQAGGTLRLSCAASGIILSRYAMGWYIQAPGKERELVAAITRTTSTSYADSVKGRFTISRDNAKNTFYLQMNILKTEDTEVYYCAAVHYGGTAYYYWGQGTQVNVSS | high polyreactivity |
| QVQLVESGGGLVQAGGTLRLSCAASGITFKRYAMGWYRLAPGKERELVATISRSGGSPYADSVKGRFTISRDNAMNTVYLQMNSLKPEDSAVYYCNAVSQSSEYDYWGEGTQVTVSS | high polyreactivity |
| QVQLVESGGGLVQAGGTLRLSCAASGITFSDYTMGWYRQAPGKERELVDAISTSGGSTYYADSVKGRFTISRDNAKNTVYLQMNSQKPEDTAVYYCAAISAVTLRGYYYWGQRTQVTVSS | high polyreactivity |
| QVQLVESGGGLVQAGGTLRLSCAASGLTFYRYAMGWYRQAPGKERELVATIRSGDGTYYADSVKGRFTISRDNAKNTVYLQMNSLKPEDTAVYYCAAKKVYRVYGRYEYWGQGTQVTVSS | high polyreactivity |

| Sequence | polyreactivity (PSR sort gate) |
| --- | --- |
| QVQLVESGGGLVQAGGTLRLSCAASGRIFGVYAMGWSRQAPGKERELVAAIRWSGGSTYYADSVKGRFTISRDNAKTTVYLQMNSLKPEDTAVYYCAAVGGVTRGNQYVRYGYWGQGTQVTVSS | high polyreactivity |
| QVQLVESGGGLVQAGGTLRLSCAASGRIFGYNDMGWYRQAPGKERELVAAINRTGGSTYYADSVKGRFTISRDNAKNTVYLQMNSLKPEDTAVYYCNADARTKWVQTHTDFITDYDYWGQGTQVTVSS | low polyreactivity |
| QVQLVESGGGLVQAGGTLRLSCAASGRIFVYYTMGWYRQAPGKERELVAAITCSGGSTYYADTVKGRFTISRDNEKNPVYLQMNSLKPEDTAVYYCAADGYADYYGWGYWTEYDYWGQGTQVTVSS | low polyreactivity |
| QVQLVESGGGLVQAGGTLRLSCAASGRTFPLYAMGWYRQAPGKERELVAAISSSGGNTYYADSVKGRFTISRDNAKNTVYLQMNSLKPEDTAVYYCNADVSTNSDRLQLDYWGQGTQVTVSS | low polyreactivity |
| QVQLVESGGGLVQAGGTLRLSCAASGSIFGNYAMGWDRQAPGKERELVAGISKSGGRTYYADSVKGRFTISRDNAKNTVYLQMNSLKPEDTAVYYCNALVTRYQSLDRLGDYWGQGTQVTVSS | high polyreactivity |
| QVQLVESGGGLVQAGGTLRLSCAASGSIFRYYAMGWYRQAPGKERELVASSSRRGGSTYYADSVKGRFTISRDIANITVYGQMNSLKPEDTAVYYCAAYSYVYGERYYYWGQGSQVTVSS | high polyreactivity |
| QVQLVESGGGLVQAGGTLRLSCAASGSTFGPNAMGWYRQAPGKEREVVATIRGSGATTYYADSVKGRFTISRDNAKNTVYLQMNSLKPEDSAVYYCDTAYFSGWYNRYGRATSYDYWGQGTEVTVSS | high polyreactivity |
| QVQLVESGGGLVQAGGTLRLSCAASGSTFIGNAMGWYRQAPGKVRELVATITSGDSKYADSVKGRFTISRDNAKNTVYLQMNSLKPEDTAVYYCNADPWDIGSTFELDYWGQGTQVTVSS | low polyreactivity |
| QVQLVESGGGLVQAGGTLRLSCAASGSTFPKYGMGWYRQAPGKEREFVARINWNGGGTYYADSVKGRFTISRDNAKNTVYLHMNSLKPEDTAVYYCNARKRGARFILGYDYWGQGTQVTVSS | low polyreactivity |
| QVQLVESGGGLVQAGGTLRLSCAASGSTFPPYAMGWYRQAPGKERELVAAISWRGSSTYYADSVKGRFTISRDNAKNTVYLQMNSLKPEDTAVYYCNADGGGSYWLYEHGFARDYWGQGTQVTVSS | high polyreactivity |
| QVQLVESGGGLVQAGGTLRLSCAASGSTFRWYAMGWYRQAPGKERELVAAITSSGSTYYADSVKGRFTISRDNAKNTVYLQMNSLKPEDTAVYYCAARAKGYWNTYEHDSWGQGIQVTVSS | low polyreactivity |
| QVQLVESGGGLVQAGGTLRLSCAASGSTFVRNAMGWYRQPPGKERELVAAISVDGSSTYYADSVKGRFTISRDNAKNTVYLQMNSLKPEDTAVYYCNADWDYRDFYDITYDYWGQGTQVTVSS | low polyreactivity |
| QVQLVESGGGLVQAGGTLRLSCAASGYIFPAYVMGWYRQAPGKERELVAAITSGGGTYYADSVKGRFTISRDNAKYTVYLQMNSLKPEDTAVYYCAARYTQRPRRNYWGQGTQVTVSS | high polyreactivity |
| QVQLVESGGGLVQAGGTLRLSCAASGYTFVVYAMGWYRQAPGKERELVASISRSGGSTYYADSVKGRFTISRDNAKNTVYLQMNSLKPEDTAVYYCAADVWRVQHRGYNYWGQGTQVTVSS | high polyreactivity |
| QVQLVESGGGLVQAGGTLRLSCAATGRTFAPNSMGWYRHAPGKERELFAAISWSGTSTYYADSVKGRFTISRDNAKNTVYLQMNSLKPEDTAVYYCAADLEGRVGSPWTYDYWGQGTQVTVSS | low polyreactivity |
| QVQLVESGGGLVQAGGTLRLSCAATGSIFPGNAMGWYRPAPGKERELVAAISGRGGSTYYADSVKGRFTISRDNAKNTVYVQMNSLKPEDTAVYYCAAAPVYRPRDSYDKHRHYYWGQCTQVTVSS | high polyreactivity |
| QVQLVESGGGLVQAGGTLRLSCAATGSTFNINAMGWYRQAPGKERELFAAITRGGTNYADSVKGRFTISRDNAKNTVYLQMNSLKPEDTAVYYCAARGTGGSVKVTSLQQGGYWGQGTQVTVSS | high polyreactivity |
| QVQLVESGGGLVQAGGTLRVSCAASGLIFYGNVMGWYRQAPGKERELVAGISRNSGSTYYADSVKGRFTISRDNANNTVYLQMNSLKPEDTAVYYCAALKFEAWAGEDYWGPGTQVTVSS | low polyreactivity |
| QVQLVESGGGLVQAGGTLRVSCAASGSTFTTNAMGWSRQAPGTERELFATISGGGSTYYADSVQGRFTISRDNAKNTVYLQMNSLKPDDTAVYYCATDVQVPGIGRSVYAYEYLGQGTQVTVSS | low polyreactivity |
| QVQLVESGGGLVQAGRCLRLSCAASGITFVPNAMGWSRQAPGKERELVAAISSGGTYADSVKGRFTISRDNAKNTVYLQMNSLKPEDTALYYCNADTDYIRWIYGYWGQVTQVTVSS | low polyreactivity |
| QVQLVESGGGLVQAGRILRLSCAASGYIFRRYAMGWYRQAPGKERELVAVISSRGGSTYYADSVKGRFTISRDNATKTVYLQMNSLKPEDTAVYYCAARSGSRATFLSDYWGQGNQVTVSS | high polyreactivity |

From the nanobody polyreactivity screen of Harvey et al. (2022)
